The record followed here is patent publication US20260337282 (published 2026).

Holding throughout (assay): FACS
One assay addresses human CCR5 (human).
The next assay has as its target T1, human CCR4 (human).
T1 chain: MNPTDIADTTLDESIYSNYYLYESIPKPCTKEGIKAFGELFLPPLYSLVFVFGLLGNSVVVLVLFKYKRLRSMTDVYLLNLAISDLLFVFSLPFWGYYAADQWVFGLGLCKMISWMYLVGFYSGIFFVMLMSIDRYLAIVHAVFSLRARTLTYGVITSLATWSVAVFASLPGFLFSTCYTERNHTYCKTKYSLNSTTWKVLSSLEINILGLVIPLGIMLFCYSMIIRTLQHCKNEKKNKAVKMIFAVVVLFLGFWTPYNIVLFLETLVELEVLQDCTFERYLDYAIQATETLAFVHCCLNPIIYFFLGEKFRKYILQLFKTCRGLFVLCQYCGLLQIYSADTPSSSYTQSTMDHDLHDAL

In assay [1] the target is human CCR8 (human).
For assay [2], the target named is T2, mouse CCR8 (mouse).
T2 chain: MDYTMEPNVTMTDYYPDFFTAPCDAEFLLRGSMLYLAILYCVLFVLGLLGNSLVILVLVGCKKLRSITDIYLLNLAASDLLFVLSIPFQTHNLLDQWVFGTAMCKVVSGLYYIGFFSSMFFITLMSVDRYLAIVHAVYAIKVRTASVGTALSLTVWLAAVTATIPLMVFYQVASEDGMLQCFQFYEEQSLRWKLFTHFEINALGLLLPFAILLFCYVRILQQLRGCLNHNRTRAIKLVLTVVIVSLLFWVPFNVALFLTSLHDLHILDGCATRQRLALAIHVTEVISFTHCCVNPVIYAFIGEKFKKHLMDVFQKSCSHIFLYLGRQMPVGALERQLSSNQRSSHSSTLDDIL

Assay [3] has as its target T2, mouse CCR8.
Assay [4] deals with human CCR8 (human). This is another data set of the same source.
Assay [5] concerns the target human CCR8 (human). This is another data set of the same source.
The target of the next assay is T3, human CCR2 (human).
T3 chain: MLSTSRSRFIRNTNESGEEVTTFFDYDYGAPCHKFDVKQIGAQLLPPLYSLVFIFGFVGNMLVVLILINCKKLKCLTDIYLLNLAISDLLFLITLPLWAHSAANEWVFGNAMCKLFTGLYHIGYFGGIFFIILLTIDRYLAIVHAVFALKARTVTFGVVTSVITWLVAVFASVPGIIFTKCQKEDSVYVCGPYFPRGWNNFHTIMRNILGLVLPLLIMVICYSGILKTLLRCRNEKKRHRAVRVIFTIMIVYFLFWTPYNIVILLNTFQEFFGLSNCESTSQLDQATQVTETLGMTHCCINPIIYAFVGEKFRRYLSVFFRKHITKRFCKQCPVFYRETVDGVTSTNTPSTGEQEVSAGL

The target of another assay is T4, human CX3CR1 (human).
T4 chain: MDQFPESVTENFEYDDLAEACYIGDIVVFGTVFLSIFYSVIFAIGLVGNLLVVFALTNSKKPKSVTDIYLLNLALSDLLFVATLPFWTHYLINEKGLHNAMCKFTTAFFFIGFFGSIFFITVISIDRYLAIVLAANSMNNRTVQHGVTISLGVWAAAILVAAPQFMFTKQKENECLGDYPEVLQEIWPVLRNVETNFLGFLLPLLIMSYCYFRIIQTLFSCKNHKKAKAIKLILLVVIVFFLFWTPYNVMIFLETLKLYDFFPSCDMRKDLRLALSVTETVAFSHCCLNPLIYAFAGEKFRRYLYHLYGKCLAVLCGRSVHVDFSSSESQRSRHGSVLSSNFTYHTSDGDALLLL

The target in assay [6] is T5, cynomolgus CCR8 (cynomolgus).
T5 chain: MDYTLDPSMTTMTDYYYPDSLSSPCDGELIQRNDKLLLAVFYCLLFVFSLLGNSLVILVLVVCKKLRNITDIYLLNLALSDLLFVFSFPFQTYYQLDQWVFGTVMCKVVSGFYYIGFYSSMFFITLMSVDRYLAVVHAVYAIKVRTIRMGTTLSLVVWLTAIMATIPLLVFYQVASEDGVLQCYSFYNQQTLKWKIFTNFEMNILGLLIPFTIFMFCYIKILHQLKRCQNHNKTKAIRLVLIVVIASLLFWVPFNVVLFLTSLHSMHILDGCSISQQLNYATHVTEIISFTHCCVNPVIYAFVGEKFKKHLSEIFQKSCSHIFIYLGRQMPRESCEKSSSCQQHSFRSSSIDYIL

Assay [7] has as its target T2, mouse CCR8.
For assay [8], the target named is human CCR8 (human). This is another data set of the same source.
The target in assay [9] is T2, mouse CCR8.
Assay [10] concerns the target T5, cynomolgus CCR8.
Assay [11] has as its target human CCR8 (human). The source holds these as a separate data set.

Like-named read-outs stand apart in the source and are kept apart here.

Chain of human CCR5 (human) (O14692 whole entry): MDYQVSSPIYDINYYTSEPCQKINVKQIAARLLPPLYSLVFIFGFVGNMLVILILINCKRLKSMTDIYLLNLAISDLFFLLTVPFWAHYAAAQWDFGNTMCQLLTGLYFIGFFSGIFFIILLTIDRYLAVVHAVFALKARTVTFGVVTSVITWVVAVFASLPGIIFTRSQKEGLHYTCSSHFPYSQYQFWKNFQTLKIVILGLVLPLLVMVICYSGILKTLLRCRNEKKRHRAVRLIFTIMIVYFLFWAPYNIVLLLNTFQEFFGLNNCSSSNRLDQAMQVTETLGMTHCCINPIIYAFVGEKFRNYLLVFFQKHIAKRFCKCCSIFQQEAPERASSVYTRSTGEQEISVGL
Chain of human CCR8 (human) (chain, as listed by the source): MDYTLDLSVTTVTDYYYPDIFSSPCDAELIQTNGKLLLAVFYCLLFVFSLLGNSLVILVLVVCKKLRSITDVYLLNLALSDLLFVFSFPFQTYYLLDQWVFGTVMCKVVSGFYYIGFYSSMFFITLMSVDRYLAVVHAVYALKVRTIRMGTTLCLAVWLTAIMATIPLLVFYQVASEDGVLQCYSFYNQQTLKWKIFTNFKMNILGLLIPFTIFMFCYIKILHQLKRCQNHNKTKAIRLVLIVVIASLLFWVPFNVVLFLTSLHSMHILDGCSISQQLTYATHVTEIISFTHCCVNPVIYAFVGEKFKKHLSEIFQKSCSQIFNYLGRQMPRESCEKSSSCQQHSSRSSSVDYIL

B1: 11F8 (antibody, V domains shown)
VH: QVQLVESGGGVVQPGRSLRLSCAASGFTFSTYVMHWVRQAPGKGLEWVAVISYDGNNKYYADSVKGRFIISRDNSKNTLFLQMNSLRGEDTAVYYCARGRSYVNYYGLDVWGQGTTVTVSS
VL: DIVMTQTPLSLSVTPGQPASISCKSSQSLLYSDGKTYLYWYLQKPGQPPHLLIYEVSNRFSGVPKRFSGSGSGTDFTLKISRVEAEDVGVYYCMQSVKIPLTFGGGTKVEIK
Usually EC50 stands for the concentration that produces a half-maximal response. Read a low EC50 as greater potency. For B1, the binding result in the assay with human CCR5, with human CCR4, with human CCR2 and in the assay with human CX3CR1 was “no binding” throughout. For the same molecule, the EC50 with human CCR8 [1] is 0.104 µg/mL; in the assay with mouse CCR8 [2], 0.127 µg/mL; with mouse CCR8 [3] it was 0.127 µg/mL; in the assay with human CCR8 [4] it was 0.0814 µg/mL; in the assay with human CCR8 [5], 0.104 µg/mL; with cynomolgus CCR8 [6], 0.71 µg/mL.

B2: 11F5 (antibody, V domains shown)
VH: EVQLVESGGGVVQPGRSLRLSCAASGFTFSSYVVHWVRQAPGKGLEWVAVISYDGDNKFYADSVKGRFTISRDNSKNTLYLQMNSLRTEDTAVYYCARGRNYYYYYGLDVWGQGTTVTVSS
VL: DIVMTQTPLSLSVTPGQPASISCKSSQSLLYSDGKTYLYWYLQKAGQPPQLLIYEVSNRFSGVPDRFSGSGSGTDFTLKISRVEAEDVGVFYCMQSLKVPPTFGQGTKVDIK
As to B2, the binding result with human CCR5, with human CCR4, with human CCR2 and with human CX3CR1 was “no binding” in each case. The EC50 turned out to be 0.287 µg/mL with human CCR8 [1]; 0.4 µg/mL with mouse CCR8 [2]; 0.168 µg/mL in the assay with mouse CCR8 [7]; 0.207 µg/mL in the assay with human CCR8 [8]; 0.4 µg/mL with mouse CCR8 [3]; 0.285 µg/mL with human CCR8 [4]. For the same molecule, the EC50 in the assay with human CCR8 [5] is 0.287 µg/mL; with cynomolgus CCR8 [6] it was more than 2 µg/mL.

B3: 11B12 (antibody, V domains shown)
VH: QVQLVESGGGVVQPGRSLRLSCAASGFSFSSYVMHWVRQAPGKGLEWVAVISYDGSDKYYADSVKGRFTISRDNSKNTLFLQMNSLRPEDTAVYYCARGRGYRYGQSYYYGMDVWGQGTTVTVSS
VL: DIVMTQTPLSLSVTPGQPASISCKSSQSLLYSDGKTYLYWYLQKPGQPPQILIFEVSNRFSGVPDRFSGSGSGTDFTLKISRVEAEDVGVYYCMQSIKLPLTFGGGTKVEIK
Regarding B3, the binding result with human CCR5, with human CCR4, with human CCR2 and in the assay with human CX3CR1 was “no binding” in each case. Besides, the EC50 with human CCR8 [1] worked out at 0.194 µg/mL; in the assay with mouse CCR8 [2], 0.177 µg/mL; with mouse CCR8 [3] it was 0.177 µg/mL; with human CCR8 [4] it was 0.21 µg/mL; in the assay with human CCR8 [5] it was 0.194 µg/mL; in the assay with cynomolgus CCR8 [6], 0.103 µg/mL.

B4: 7B16 analog (antibody, V domains shown)
VH: EVQLVESGGGLVQPGGSLKLSCAASGFTFNTYAMNWVRQASGKGLEWVGRIRSKSNNYATYYADSVKDRFTISRDDSKNTAYLQMNSLKTEDTAVYYCVRGLLRYRFFDVWGQGTTVTVSS
VL: DIVMTQSPLSLPVTPGEPASISCRSSKSLLHSNGNTYLYWFLQKPGQSPQLLIYRMSNLASGVPDRFSGSGSGTDFTLKISRVEAEDVGVYYCMQHLEYPFTFGGGTKVEIK
In the case of B4, the binding result with mouse CCR8 [9] and with cynomolgus CCR8 [10] was “no binding” throughout. In addition, the EC50 with mouse CCR8 [3] was more than 10 µg/mL; with human CCR8 [5], 0.039 µg/mL.

B5: Leronlimab analog (antibody, V domains shown)
VH: EVQLVESGGGLVKPGGSLRLSCAASGYTFSNYWIGWVRQAPGKGLEWIGDIYPGGNYIRNNEKFKDKTTLSADTSKNTAYLQMNSLKTEDTAVYYCGSSFGSNYVFAWFTYWGQGTLVTVSS
VL: DIVMTQSPLSLPVTPGEPASISCRSSQRLLSSYGHTYLHWYLQKPGQSPQLLIYEVSNRFSGVPDRFSGSGSGTDFTLKISRVEAEDVGVYYCSQSTHVPLTFGQGTKVEIK
Consider B5, for which the binding result in the assay with human CCR4, with human CCR8 [11], with human CCR2 and in the assay with human CX3CR1 was “no binding” throughout.

B6: Plozalizuzumab analog (antibody, V domains shown)
VH: EVQLVESGGGLVKPGGSLRLSCAASGFTFSAYAMNWVRQAPGKGLEWVGRIRTKNNNYATYYADSVKDRFTISRDDSKNTLYLQMNSLKTEDTAVYYCTTFYGNGVWGQGTLVTVSS
VL: DVVMTQSPLSLPVTLGQPASISCKSSQSLLDSDGKTFLNWFQQRPGQSPRRLIYLVSKLDSGVPDRFSGSGSGTDFTLKISRVEAEDVGVYYCWQGTHFPYTFGQGTRLEIK
For B6, the binding result with human CCR5, with human CCR4, with human CCR8 [11] and with human CX3CR1 was “no binding” throughout.

B7: Mogamulizumab analog-SI (antibody, V domains shown)
VH: EVQLVESGGDLVQPGRSLRLSCAASGFIFSNYGMSWVRQAPGKGLEWVATISSASTYSYYPDSVKGRFTISRDNAKNSLYLQMNSLRVEDTALYYCGRHSDGNFAFGYWGQGTLVTVSS
VL: DVLMTQSPLSLPVTPGEPASISCRSSRNIVHINGDTYLEWYLQKPGQSPQLLIYKVSNRFSGVPDRFSGSGSGTDFTLKISRVEAEDVGVYYCFQGSLLPWTFGQGTKVEIK
In the case of B7, the binding result with human CCR5, with human CCR8 [11], with human CCR2 and with human CX3CR1 was “no binding” in each case.

B8: 10A11 analog (antibody, V domains shown)
VH: EVQLVESGGALVKPGGSLRLSCAASGFTFSTYALYWVRQAPGKGLEWVGRIRSKSNNYATYYADSVKDRFTISRDDSKNTLYLQMNSLKTEDTAVYYCTRARFYYSDYGYAMDYWGQGTLVTVSS
VL: DIVMTQSPDSLAVSLGERATINCRSSKSLLHSNRNTYLYWYQQKPGQPPKLLIYRMSQLASGVPDRFSGSGSGTDFTLTISSLQAEDVAVYYCMQHLEYPLTFGQGTKLEIKR
Regarding B8, the binding result with mouse CCR8 [9] is “no binding”. The EC50 is more than 10 µg/mL in the assay with mouse CCR8 [3] and 0.058 µg/mL with human CCR8 [5].
